Assay: soluble on expression in E. coli; label from the status in PepcDB or PDB records

Sequence | soluble on expression in E. coli
MVTKRIIPCLDVHNGRVVKGVNFVNIRDAGDPVEIASYYDKAGADELTFLDITASAEARNIMIDVVRRVAEQVFIPFTVGGGIRTVEDFREILKAGADKVSINSAAVKRPELISEAASRFGSQCVVVAIDAKRRDDNSGWDVYINGGRINTGKDAVEWAVEVEKLGAGEILLTSMDCDGTKKGYDIELTRKVSESVRIPVIASGGAGTMEHFREALVEGKADAVLAASLFHYREIEIMELKKYLKENGIEIRM | not soluble
GGTAYWKNPDQFTAFNTGLHALLREKSYNFFLLGEPRADIYGDNPIGGEASQGMERLPFNTINKENVGISNYGDMYKIINQINQMIAKTTETTILTEATQNYYLGEAYGMRAYLYFHLLRSWGDVVLYLDYTEGQNLDLSNITKGVSPATEVMEQIKKDIQASENAFGSDYSFKLGRHFWSAAATQMLKGEAYLWSGRQMNGGNSDYTIAKNAFENVKKADVGLVTSSFKDIFSFENKKNKEMIFTIHNGKDEYEMWGGYYRMRLIPAQDKMVKIYCDENGNSFVGTPDAQLNGLTQLQVRREFYFKGFRNNDTRWTTSLKAVYKKDAQGVVSYFGPITYKFQGTMLEGGSTRSFLDDFPIYRYADCLLQLAMAKVLLGEDPTEEINAVRERAYGSKYFNEHKAEIAYPNDNDPEFYTDNKWMKPDNAGALEAILKERLREFMFEGKRWYDIRLLGWDYVHQYSSAEQSRLLWPIDAGTLTNNSALKQTPGYE | soluble
MGSDKIHHHHHHGCSRRDILDDYPVSGVEVRLDWSGVTEKLPEGVRIIFYPKDEKGRKIDTYLSVTGGEVKVPSGHYAVVIYNYDTETVLIRGEESYETIQAYTNFCKLGIAGTEKMVWGPDPLYVVNIDDLDIQNSEETLILKLKPKLVIRTYSFSIKVQGLSNVSNVIGSIGGMADHYFLGKAYAMCDDYPINIDLNVKAGKIEGVFTTFGLPEAIITRLEIKLPVMMNLMIIKVDNSVQEVKINITEAVQEPTGGGEGGEGEETKPPALVEVEIEDEIKVDDVETPPSGGGGIGGDVGDWDDETNVELPVG | not soluble
MAHHHHHHMEGDISSSAFVCGFTAHRAHPLSPISDIRDLCVPRTSTPSASSHALAQALSFPRRPLPHRLLASCLLITTTNRFQAHCSRSAATQPPPPLPCGTTTEREYGWDGLAVFLSADSRVFRSPFSTIVSRFSPFVAAMSDRDVPASMTRTCAPPKAHFLFCSTDARNAAPASNGDVAKLPAPKKPISAPLTPFQSPVDTHRDRHSSRHASPPRQLGRPLPPTQPSFSDVAKRMGSFNDMCEANSLLSSHVRLGEMSTLGISASTSTIPAGSSGSTTSLHWLRIAEDRVMPHPSSTKPAPAALQRNAEYVLERWVEQKVHRTAAMDDAMMKVAAAFDELYA | soluble
GEERKSSSWGRVDAMELPNYSRQLLQQLYTLCKEQQFCDCTISIGTIYFRAHKLVLAAASLLFKTLLDNTDTISIDASVVSPEEFALLLEMMYTGKLPVGKHNFSKIISLADSLQMFDVAVSCKNLLTSLVNCSVQGQVVRDVSAPSSETFRKEPEKPQVEILSSEGAGEPHSSPELAATPGGPVKAETEEAAHSVSQEMSVNSPTAQESQRNAETPAETPTTAEACSPSPPVQTFSEAKKTSTEPGCERKHYQLNFLLENEGVFSDALMVTQDVLKKLEMCSEIKGPQKEMIVKCFEGEGGHSAFQRILGKVREESLDVQTVVSLLRLYQYSNPAVKTALLDRKPEDVDTVQPKGSTEEGKTLSVLLLEHKEDLIQCVTQLRPIMESLETAKEEFLTGTEKRVILNCCEGRTPKETIENLLHRMTEEKTLTAEGLVKLLQAVKTTFPNLGLLLEKLQKSATLPSTTVQPSPDDYGTELLRRYHENLSEIFTDNQILLKMISHMTSLAPGEREVMEKLVKRDSGSGGFNSLISAVLEKQTLSATAIWQLLLVVQETKTCPLDLLMEEIRREPGADAFFRAVTTPEHATLETILRHNQLILEAIQQKIECKLFTSEEEHLAETVKEILSIPSETASPEASLRAVLSRAMEKSVPAIEICHLLCSVHKSFPGLQPVMQELAYIGVLTKEDGEKETWKVSNKFHLEANNKEDEKAAKEDSQPGEQNDQGETGSLPGQQEKEASASPDPAKKSFICKACDKSFHFYCRLKVHMKRCRVAKSKQVQCKECSETKDSKKELDKHQLEAHGAGGEPDAPKKKKKRLPVTCDLCGREFAHASGMQYHKLTEHFDEKPFSCEECGAKFAANSTLKNHLRLHTGDRPFMCKHCLMTFTQASALAYHTKKKHSEGKMYACQYCDAVFAQSIELSRHVRTHTGDKPYVCRDCGKGFRQANGLSIHLHTFHNIEDPYDCKKCRMSFPTLQDHRKHIHEVHSKEYHPCPTCGKIFSAPSMLERHMVTHVGGKPFSCGICNKAYQQLSGLWYHNRTHHPDVFAAQNHRSSKFSSLQCSSCDKTFPNTIEHKKHIKAEHADMKFHECDQCKELFPTPALLQVHVKCQHSGSQPFRCLYCAATFRFPGALQHHVTTEHFKQSETTFPCELCGELFTSQAQLDSHLESEHPKVMSTETQAAASQMAQVIQTPEPVAPTEQVITLEETQLAGSQVFVTLPDSQASQASSELVAVTVEDLLDGTVTLICGEAK | soluble
MGHHHHHHSHMQPAKEVTKASDGSLLGDLGHTPLSKKEGIKWQRPRLSRQALMRCCLVKWILSSTAPQGSDSSDSELELSTVRHQPEGLDQLQAQTKFTKKELQSLYRGFKNECPTGLVDEDTFKLIYAQFFPQGDATTYAHFLFNAFDADGNGAIHFEDFVVGLSILLRGTVHEKLKWAFNLYDINKDGYITKEEMLAIMKSIYDMMGRHTYPILREDAPAEHVERFFEKMDRNQDGVVTIEEFLEACQKDENIMSSMQLFENVI | not soluble
MSWITNYDAAQRELLMQKVQMQMSERRFRHVLGVEETAVALAAKYGADEAKASIAALTHDYAKERPNDEFELIIRRDGFDLALLNYGNEIWHGLVGADIVQRELAIDDEEILQAIRVHTTGAAKMSLLDKIIYVADYIEPGRDFPGVKEAREIALVDLDAAVAYETKHTLLHLIEQEHKIYPKTLETYNQWVVNQK | not soluble
MRGSHHHHHHMDYASVAMAAAPTTTTTTNVSLRRQRHRKEKLLVLMGATGTGKSRLSIDLAAHFPLEVINSDKMQVYKGLDITTNKISVPDRGGVPHHLLGEVDPARGELTPADFRSLAGKAVSEITGRRKLPVLVGGSNSFIHALLVDRFDSSGPGVFEEGSHSVVSSELRYDCCFLWVDVSVKVLTDYLAKRVDDMLELGMFDELAEFYSPEDEDHDEDSATRTGLRKAIGVPEFDRYFEKFRPGDVEGEDPGRDRVRRGAFEEAVRAIKENTCHLAKRQIGKILRLKGAGWDLRRLDATESFRAAMTSDSGEKCTEIWEKQVLEPSVKIVSRFLDE | soluble
MHIKSIHLDGFKSYQKHTDILDFSPTFNAITGYNGSGKSNILDSICFIMGINKLDNIRAKSMHELISHGGTKAIVQVRFDNTDKRCSPFGMEHLDEIVVQRIITAQATGKGCATSYTLNGHAATNGKMQDFFRGVGLNVNNPHFLIMQGRITTVLNMKPEEILGMVEEAAGTKMYDQKKKDAEKTMFLKDAKLKEVDRIFQSSIDPRMVKFREDRKNMVEVTRLKKLKENFSRKYEAFQYFQTCEAVKKSAKEIEDAKKGIEDLGEKFNQLDLDLKNKEDEKKKMEESRDDQHEEAALSAAHLSKQSIMLQKETVKNQLVETINKLKKEGEQINKSLSKDREVLDAKRKEHEDSKAANSKDIQSQSDDEALVTKYRNDLESLTRGTIANDKGEHVSIESEIQSCKSTASQMSSGITAAKKRGERLHNQIKHLEGEKATLSARSKSDIGSADNYQKEVDEINKQLQLLGFNIDADTEKREHAAKLHESITKLKDMDTRLLNSYKDGRYALNYQRPPLHIDKFDEKRDVFGYVAHLIKMKPGCEQFAVAADIALGGVLGNVVVSTQDIARILIDGKAFTSRKTMIPVSENARNASSYNTLPDVKLRRAKEIAEKYNDTVTKMIDLIEYPDFISNTILNAVGQILVVDSLDVAREIAYDEVAKTRMITRRGDDVRTNGIMTGGYNDPGNKPALIALEPMYARRPQIEAQQRELDALNRELQLTEASSQKCRDLNNQLATAMRKLAQVKTNINNSEFGIVVRDLKVHSEEYEKNQAEIEATVKTLKDVEDKIKTLESMKNKDKNSQEKRKKELTALLQKAEQTVAQNKNRGEKARREVMLLQATVEEMEKTIKKDEGIWEQKKKECDELEEKLPNAIAALKDAELEQKAAQAKLNDLKNNQRQISTRLGKIAKECDALIREKAKTKSKREEKEKELTSLQQSEASNRKEARSKLKKFEWLSDEEAHFNKKGGLYDFEGYTVSKGKDEIKELTDKIETLERSCCIQNVSNLDTCEAKVLDIKNKRERITEDFNMLKKTIATLDKKKVDELIRAHESVNKDFGQIFNCLLPDAHASLVPPEGKTVCEGLEVKVSFGGVVKDSLHELSGGQRSLVALSLILAMLKFKPAPLYILDEVDAALDLSHTANIGMMIKTHFHHNQFIIVSLKQGMFSNADVLFQTRFADGHSTCTRLNGGDIAVLCQDKVLQAQALELTDAGKAKKDAAAKKGAQKNDKEPPKKKPIVVDDDDFE | not soluble
NIYDSANELSRGLRGLPEYKAVKAAKDAIAADAEASKIFTDYLAFQEEIQKLAQTGQMPDASFQAKMEGFGKQIQGNSLLSEFFTKQQQLAIYLSDIEKIVFEPVSELLK | not soluble
MGSDKIHHHHHHMDSVSPELISNNQGYDRSHKQRLECLICNYHVDLNDKSAFSTFFCNVRAFRDEKFPIWRCPTCQTIHCLDVVDIDSYYAKYPFAEAKLTLPFRLCYQNLCQKMIEHGFSKTHSFLDYGCGNGLVVQYLRENGFANAYGYDPYAPKESFGDATVLQRGPFDYILLQDIIEHVEDPHALLSKLDSLLAPGGYLLLGTPNATNIDINRPELSNYYNAVHVPYHIHIYTREVVESLGKQQGWEVVKFFNRGYDDTRWFGLNTRTWNEYQSISDGTFDVIFEEINIWQALKSYRFLFYAFFGYWLSLRTDMTIMFRKKITD | not soluble
MGSDKIHHHHHHMSLNSTPQSVRVHIGLFGKRNAGKSSIINAITNQSAAIVSDIAGTTTDPVFRPMEILPIGPCVLIDTAGLDDVGELGELRIGKSLDVLEKTDIALLVVDCQIGISQEDLSLIEKFNDKNIPHILILNKIDTIKNQSEILNLTKNKVKCPVVSVSSTDKIGIENLKNEIIKVLPKDSTEFKLVSDLIEPNDLVVLVVPIDKAAPKGRLILPQQQVIRDILDNGAISIVTKEDSLKETLSNLGKKPKLVITDSQVFPQVDKDTPKDIPLTSFSILFARQKGDLKELINGAYALENLKDGDKILMAEGCTHHRQTDDIGTVKIPNMIRKKTGKNITFEFSSGVSFTEDINKYALVVHCGACMMNRAGMLSRIEKAKSFNVPIVNYGVLIAYVKGILERSLELFNY | not soluble
MGSDKIHHHHHHMKESMSITSSTYASALLTLPWGTPLEQWPDNLIAALPRGISRHIVRFVGINRGIVAVKEIGARTAHHEYKMLRELQRLGAPSVRPVAVITGRHPAEEDYGELTAALVTEHLEFSLPYREIFSRHLTVVESEKLIRALSVLLVRMHLLNFYWGDVSLSNTLFRRDAETYSAYLVDAETGEFQPNLSESRRLYDVDIARVNIIGELMDLQAGECLDKSIDVIALGGLVESSYLELWTELTAEESVDASEYWRLSERIDRLNQLGFDVGELKVTKDDSRQVVRIRPVVVDPGHYRAELLSLTGLSVEEHQAQRLLGSIQAYQAVECGPHVGLTQAAHLWMTNEYEPTIAAVPVEMLDKLEPAQIFHEIVDHRWFLAQERGGAVTLPEATASYLESVLPARRDEARLLSTNPSDEDLS | not soluble

Source: the DeepSol protein solubility set
